Assay results taken from publication PMC5350102, “Efficient Binding of the NOS1AP C-Terminus to the nNOS PDZ Pocket Requires the Concerted Action of the PDZ Ligand Motif, the Internal ExF Site and Structural Integrity of an Independent Element” (Frontiers in Molecular Neuroscience, 2017).
“And” between values parts separate entries of the source, which are not always exact repeats. Equal values may be shown once. Where no end group is shown, it is not given here. fluorescein = fluorescein label at the peptide N-terminus

B1: F-GDLV (fluorescein-RRRRWGDLV) (peptide)
peptide: fluorescein-RRRRWGDLV
notes: also called F-GLDV; source: synthetic peptide, bought: Genic Bio (Shanghai, China)
B2: NOS1AP[432–506] cleaved from GST (domain or fragment, human, UniProt O75052 432-506, looked up)
chain: RFLPPEDTPPPAQGEALLGGLELIKFRESGIASEYESNTDESEERDSWSQEELPRLLNVLQRQELGDGLDDEIAV
B3: Peptide EIAV (NH2-DSLDDEIAV-COOH) (peptide)
peptide: H-DSLDDEIAV-OH
notes: last 9 amino acids of rat/mouse NOS1AP; also called NOS1AP-9C; DSLDDEIAV (NOS1AP-9C); source: synthetic peptide, synthesized by Xigen AG (Lausanne, Switzerland)
B4: His-TAT-NOS1AP[400–506], denatured (domain or fragment, human, UniProt O75052 400-506, looked up)
chain: HSPPLGAGLADFAHPAGSPLGRRDCLVKLECFRFLPPEDTPPPAQGEALLGGLELIKFRESGIASEYESNTDESEERDSWSQEELPRLLNVLQRQELGDGLDDEIAV
notes: Same construct as m10, but prepared under denaturing conditions
B5: NOS1AP[400–506] F431A cleaved from GST (domain or fragment, human, UniProt O75052 400-506, looked up)
chain: HSPPLGAGLADFAHPAGSPLGRRDCLVKLECARFLPPEDTPPPAQGEALLGGLELIKFRESGIASEYESNTDESEERDSWSQEELPRLLNVLQRQELGDGLDDEIAV
B6: His-TAT-NOS1AP[400–503], denatured (domain or fragment, human, UniProt O75052 400-503, looked up)
chain: HSPPLGAGLADFAHPAGSPLGRRDCLVKLECFRFLPPEDTPPPAQGEALLGGLELIKFRESGIASEYESNTDESEERDSWSQEELPRLLNVLQRQELGDGLDDE
notes: also called denatured NOS1AP[400–503]; NOS1AP 400-503 His-TAT fusion, Denatured
B7: His-TAT-NOS1AP[400–503] E429A, denatured (domain or fragment, human, UniProt O75052 400-503, looked up)
chain: HSPPLGAGLADFAHPAGSPLGRRDCLVKLACFRFLPPEDTPPPAQGEALLGGLELIKFRESGIASEYESNTDESEERDSWSQEELPRLLNVLQRQELGDGLDDE
notes: NOS1AP, human, residues 400-503 with E429A in the ExF motif
B8: Peptide GDLV (NH2-RRRRWGDLV-COOH) (peptide)
peptide: H-RRRRWGDLV-OH
notes: also called unlabelled GDLV; source: synthetic peptide, bought: Genic Bio (Shanghai, China)

Key:
Conditions in all cases: both partners purified
His-nNOS[1–155] [1] = biological target: T1, His-nNOS[1–155] (human, UniProt P29475-1 1-155); experiment: fluorescence polarisation; increasing His-nNOS(1–155) added to 1 μM F-GDLV in 50 mM Tris pH 7.4, 100 mM NaCl, 1 mM EDTA, 0.1% BSA; one-site quadratic fit; triplicates from each of two nNOS batches
T1 construct: Two batches were used

His-nNOS[1–155] [2] = biological target: T1, His-nNOS[1–155]; experiment: as above; remark: listed apart in the source
His-nNOS[1–155] [3] = biological target: T1, His-nNOS[1–155]; experiment: fluorescence polarisation; competition FP: 1 μM F-GDLV, 4 μM His-nNOS(1–155), increasing competitor; approximate Kc (dissociation constant of the competitor, affinity for the nNOS PDZ pocket) from the single-site competition formula
GST-nNOS[1–155] = biological target: T2, GST-nNOS[1–155] (human, UniProt P29475-1 1-155); experiment: pull-down; solid-phase no-wash binding assay: 5 μl beads bound to 1 μg GST-fused nNOS protein (or GST for background) rotated with His-TAT-NOS1AP peptides for 1 h at 4°C; unbound removed by centrifugation in filter plates, no wash; bound peptide quantified by fluorescent immunoblot; GST background subtracted; 1-site quadratic fit
T2 construct: also called GST-fused nNOS protein

Binder	Ki (His-nNOS[1–155] [3]) [µM]	Kd (GST-nNOS[1–155]) [µM]	also measured
B1	–	–	Kd (His-nNOS[1–155] [1]): 10.2 µM and 11.2 µM; Kd (His-nNOS[1–155] [2]): 10.7 µM
B2	> 10	–	–
B3	> 300	–	–
B4	–	2.4	–
B5	> 10	–	–
B6	–	5.3	–
B7	–	99	–
B8	10.7	–	–
